Measurements: publication PMC6878762 (Nature, 2012)

B1: Dom34 (Pelota of Saccharomyces cerevisiae) (natural protein, S. cerevisiae, UniProt P33309 1-386, looked up)
chain: MKVISLKKDSFNKGGAVITLLPEDKEDLFTVYQIVDKDDELIFKKKFTSKLDEAGKKKSTDLVKLKIKVISEDFDMKDEYLKYKGVTVTDESGASNVDIPVGKYLSFTLDYVYPFTIIKQNFNKFMQKLLNEACNIEYKSDTAAVVLQEGIAHVCLVTSSSTILKQKIEYSMPKKKRTTDVLKFDEKTEKFYKAIYSAMKKDLNFDKLKTIILCSPGFYAKILMDKIFQYAEEEHNKKILDNKGMFFIAHCSTGYLQGINEVLKNPLYASKLQDTKYSKEIMVMDEFLLHLNKDDDKAWYGEKEVVKAAEYGAISYLLLTDKVLHSDNIAQREEYLKLMDSVESNGGKALVLSTLHSLGEELDQLTGIACILKYPLPDLDEDDGEE

Tests used:
[1] = molecular target: B1; assay: cryo-EM structure
[2] = molecular target: Rli1 (ABCE1 of Saccharomyces cerevisiae) (S. cerevisiae, UniProt Q03195 1-608); assay: cryo-EM structure
Sequence of Rli1 (ABCE1 of Saccharomyces cerevisiae) (Q03195 whole entry): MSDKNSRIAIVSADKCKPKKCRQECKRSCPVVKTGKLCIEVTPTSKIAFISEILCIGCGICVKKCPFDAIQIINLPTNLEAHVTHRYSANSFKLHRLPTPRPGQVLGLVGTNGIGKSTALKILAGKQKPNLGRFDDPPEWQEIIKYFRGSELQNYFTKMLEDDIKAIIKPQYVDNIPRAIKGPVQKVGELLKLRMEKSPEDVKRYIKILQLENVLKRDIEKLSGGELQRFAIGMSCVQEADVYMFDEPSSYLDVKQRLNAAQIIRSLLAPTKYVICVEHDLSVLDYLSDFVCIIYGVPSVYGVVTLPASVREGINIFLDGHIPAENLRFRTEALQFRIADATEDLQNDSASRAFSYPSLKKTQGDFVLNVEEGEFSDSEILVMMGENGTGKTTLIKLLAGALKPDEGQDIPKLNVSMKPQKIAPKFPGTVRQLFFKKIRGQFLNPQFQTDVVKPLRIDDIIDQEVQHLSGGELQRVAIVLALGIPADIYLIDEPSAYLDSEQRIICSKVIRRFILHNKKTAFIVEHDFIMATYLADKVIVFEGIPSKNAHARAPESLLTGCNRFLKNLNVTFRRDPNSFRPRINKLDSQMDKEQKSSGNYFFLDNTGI

Row | binding result [1] | binding result [2] | Binder
1 | binds |  | ribosomal protein rpS30 (yeast 40S subunit) (natural protein, UniProt P0CX33 1-63, looked up) MAKVHGSLARAGKVKSQTPKVEKTEKPKKPKGRAYKRLLYTRRFVNVTLVNGKRRMNPGPSVQ
2 |  | binds | B1
3 |  | binds | ribosomal protein rpP0 (yeast 60S subunit) (natural protein, UniProt P05317 1-312, looked up) MGGIREKKAEYFAKLREYLEEYKSLFVVGVDNVSSQQMHEVRKELRGRAVVLMGKNTMVRRAIRGFLSDLPDFEKLLPFVKGNVGFVFTNEPLTEIKNVIVSNRVAAPARAGAVAPEDIWVRAVNTGMEPGKTSFFQALGVPTKIARGTIEIVSDVKVVDAGNKVGQSEASLLNLLNISPFTFGLTVVQVYDNGQVFPSSILDITDEELVSHFVSAVSTIASISLAIGYPTLPSVGHTLINNYKDLLAVAIAASYHYPEIEDLVDRIENPEKYAAAAPAATSAASGDAAPAEEAAAEEEEESDDDMGFGLFD
